Experimental findings from patent US20120220530A1 are described below.

The target in assay [1] is soluble mouse FcRn (smFcRn) (mouse) (UniProt Q61559). In words: SPR, FcRn immobilized, steady state (Req).
Assay [2] deals with shFcRn heterodimer produced by GeneArt AG (human) (UniProt P55899). Nature of the assay: SPR (Biacore), immobilized shFcRn. On the technique in general: SPR reads the build-up and loss of mass on a sensor chip optically.
Sequence of shFcRn heterodimer produced by GeneArt AG (human) (P55899 24-290 limits assumed, chain 1 of 2): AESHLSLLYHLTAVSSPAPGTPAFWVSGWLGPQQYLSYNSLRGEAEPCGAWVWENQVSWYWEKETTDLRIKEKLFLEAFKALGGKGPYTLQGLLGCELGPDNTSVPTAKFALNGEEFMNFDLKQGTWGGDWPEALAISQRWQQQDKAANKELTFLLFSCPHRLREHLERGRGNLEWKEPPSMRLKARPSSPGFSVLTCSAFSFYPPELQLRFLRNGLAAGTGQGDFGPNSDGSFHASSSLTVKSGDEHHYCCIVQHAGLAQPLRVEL
Sequence of shFcRn heterodimer produced by GeneArt AG (human) (chain, as listed by the source limits assumed, chain 2 of 2): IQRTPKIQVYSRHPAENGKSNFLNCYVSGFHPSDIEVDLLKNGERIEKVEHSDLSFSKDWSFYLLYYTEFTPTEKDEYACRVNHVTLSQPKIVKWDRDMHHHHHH

Sequence of soluble mouse FcRn (smFcRn) (mouse) (Q61559 22-290): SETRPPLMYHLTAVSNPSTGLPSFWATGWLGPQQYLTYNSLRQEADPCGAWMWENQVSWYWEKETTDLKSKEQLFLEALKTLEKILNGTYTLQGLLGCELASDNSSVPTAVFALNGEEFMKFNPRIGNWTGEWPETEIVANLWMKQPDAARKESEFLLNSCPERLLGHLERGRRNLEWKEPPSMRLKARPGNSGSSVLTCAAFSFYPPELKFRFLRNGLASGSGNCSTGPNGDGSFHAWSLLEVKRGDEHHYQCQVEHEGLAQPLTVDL

What is called Kd is the equilibrium constant for the complex coming apart. A lower Kd goes with a tighter complex. Substance “recombinant human serum albumin (RECOMBUMIN) (from UniProt P02768 25-609) (ligand; other documents disagree on this pair)” showed a Kd in assay [1] of 86.2 µM.

For the substance “HSA K573P conjugated to horseradish peroxidase (from UniProt P00433 31-338)”, the Kd in assay [2] turned out to be 0.02 µM.
